Reference: patent US20230295324A1 (published 2023)

How the values were obtained:
[1] = target: T1, human OX40 on cells (CHO-K1/hu OX40) (human, UniProt P43489 29-277); experiment: cell-based or functional assay
T1 sequence (looked up): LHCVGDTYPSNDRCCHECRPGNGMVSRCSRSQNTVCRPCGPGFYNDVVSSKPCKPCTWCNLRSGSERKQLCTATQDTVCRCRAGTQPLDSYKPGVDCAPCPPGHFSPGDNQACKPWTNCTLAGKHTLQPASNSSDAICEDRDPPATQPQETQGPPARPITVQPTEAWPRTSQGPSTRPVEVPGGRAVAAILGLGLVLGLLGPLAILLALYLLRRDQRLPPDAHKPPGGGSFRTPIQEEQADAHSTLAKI

[2] = target: T1, human OX40 on cells (CHO-K1/hu OX40); experiment: FACS, CHO-K1/hu OX40 cells
Summary of the method: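 Binding of anti-human OX40 HCAb antibodies measured by flow cytometry on CHO-K1 cells stably overexpressing human OX40. Cells incubated with 3-fold serially diluted antibodies 1 h at 4 °C in the dark, washed, then secondary staining 30 min at 4 °C; fluorescence read by FACS.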

[3] = target: T2, cynomolgus monkey OX40 protein (Novoprotein, #CB17) (cynomolgus monkey); experiment: ELISA, coated cyno OX40 protein
T2 construct: Bought recombinant protein; also called cyno OX40

[4] = target: T3, human OX40 protein (Acro biosystem, #OX0-H5224) (human, UniProt P43489 29-216); experiment: BLI, antibody on ProA sensor, 1:1 global fit
T3 construct: Bought recombinant protein
T3 sequence (looked up): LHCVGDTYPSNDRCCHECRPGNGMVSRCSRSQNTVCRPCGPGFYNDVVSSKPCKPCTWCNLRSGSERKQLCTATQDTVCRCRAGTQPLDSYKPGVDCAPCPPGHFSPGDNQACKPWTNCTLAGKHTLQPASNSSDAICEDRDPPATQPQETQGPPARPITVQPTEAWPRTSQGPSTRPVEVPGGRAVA
Description: (§1) The binding kinetics between the antigen and the antibody was analyzed by the Biolayer Interferometry (BLI) technique using an Octet Red 96e molecular interaction analyzer (Fortebio).
(§2) The association and dissociation signals between the OX40 antibodies and OX40 proteins were recorded by Octet Red 96 in real time. When data analysis was performed using Octet Data Analysis software (Fortebio, version 11.0), 0 nM was used as a reference hole, and reference subtraction was performed; the “1:1 Global fitting” method was selected to fit the data, and the kinetics parameters of the binding of antigens to antigen-binding proteins were calculated, with kon(1/Ms) values, kdis(1/s) values and KD(M) values obtained.

[5] = target: T2, cynomolgus monkey OX40 protein …; experiment: BLI, antibody on ProA sensor, 1:1 global fit
Description: as §1, §2

B1: PR002067 (antibody, human IgG1, V domains shown)
VH: EVQLLESGGGLVQPGGSLRLSCAASGFTFSSYAMSWVRQAPGKGLEWVSAISGRGGSTFYADSVRGRFTISRDNSKNTLYLQMNSLRAEDTAMYYCVDGTTGTTDVDYWGQGTLVTVSS
notes: no light chain; also called anti-OX40 HCAb antibody
B1 was tested, and the “EC50, IFN-γ release by human T cells with OKT3 and CHO-K1-CD32b cells” value [1] was 0.0863 nM, the “Maximum IFN-γ release value” [1] was 2000 and the EC50 [2] was 5.25 nM. The “Maximum MFI” value [2] was 3010 MFI, the EC50 [3] was 0.232 nM and the “Maximum OD” value [3] was 2.16 OD. It also gave a Kd [4] of 4.16 nM, a koff [4] of 0.000156 s⁻¹ and a kon [4] of 37400 M⁻¹ s⁻¹. It also gave a Kd [5] of 19.2 nM, a koff [5] of 0.000475 s⁻¹ and a kon [5] of 24800 M⁻¹ s⁻¹.
